{"source": "paper PMC6251626", "about": "“Structural basis of tubulin recruitment and assembly by microtubule polymerases with tumor overexpressed gene (TOG) domain arrays” (eLife, 2018)", "key": {"[1]": {"molecular_target": "the molecule itself", "test": "SEC-MALS; isolated proteins alone, 200 mM KCl"}, "[2]": {"molecular_target": "T1, αβ-tubulin heterodimer purified from porcine brains (porcine, UniProt P02550 1-451; P02554 1-445)", "T1 construct": "α-tubulin of porcine brain; β-tubulin of porcine brain; Brain tubulin is a mixture of isotypes; Chains also in PDB 6MZF, 6MZE, 6MZG; also called soluble porcine αβ-tubulin; source: purified from porcine brains (two GTP-polymerization cycles at high ionic strength); copies: 1 + 1", "test": "SEC; quantitative SEC (Superdex 200 10/300) with SDS-PAGE densitometry of fractions; 2 αβ-tubulin per Alp14 subunit, with or without DRP; 100 mM KCl, 50 mM HEPES pH 7.0, 1 mM MgCl2, 1 mM β-mercaptoethanol", "details": "both partners purified"}, "[3]": {"molecular_target": "T1, αβ-tubulin heterodimer purified from …", "test": "SEC-MALS; Alp14 constructs mixed with soluble αβ-tubulin (with or without DRP), Superdex 200 Increase 10/300, 80-100 mM KCl", "details": "both partners purified"}, "[4]": {"molecular_target": "T1, αβ-tubulin heterodimer purified from …", "test": "SEC; quantitative SEC (Superdex 200 10/300) with SDS-PAGE densitometry of fractions; 2 αβ-tubulin per Alp14 subunit, with or without DRP; 200 mM KCl, 50 mM HEPES pH 7.0, 1 mM MgCl2, 1 mM β-mercaptoethanol", "details": "both partners purified"}}}
{"binder": "wt-Alp14-dimer (S. pombe Alp14 residues 1-690) (domain or fragment, UniProt O94534 1-690, looked up, Alp14 (Alp14p), S. pombe, residues 1-690 (TOG1-TOG2, SK-rich region, coiled coil); also called dimeric Alp14; source: E. coli BL21, purified (Ni-IDA and/or ion exchange, SEC)) MSQDQEEDYSKLPLESRIVHKVWKVRLSAYEECSKSFSLSADGSDNCFELWNNQSELWKSVLTDSNVAAQEAGTAAFVAYCRFSDPSHLLKAREISVLSISEKCLTSPRAGTRENALEALMLLVEADSAAPVIESIIPSLSARSPKVIASNVAAIASLVEQFGAKVIPSKMIIPHISNLFGHADKNVRKEASRLTVNIYRWTGDPLKDLLFKDLRPVQTKELESLFAELPTEPPKQTRFLKSQQPTSEPNVETQVEEQPALENEESEPEPSDDQFDLVEEVDVLPNVDPNLETLMASSKWKDRKEALDKLLPVLSQPKIKDNDFFNLVAILTKSVSKDANIMVVINAAHCIQAMAKGLRSNFSKYASTSINALLERSKEKKANVIESLSSAMDAVLATSSLDDLAELIASFAGNKNPQIKSSCFSLFSRSFSNMTSLPSKFTVDTCAKACVPGVSDTFEPVRSAAAEALGVLMKLVGERAINQYLSPLDDIRKSKIRSFYETATVKAKAPTKKSKVKPSKQEESKVVVPSNAKAVKKSVVPSSPVVPSPRKATNKSLSMDVSKGNAFENGPLLPRPTTRPVSRGLSRGTSSSLQQKVKASTPLNSGALNETVQNLKNMELDDPAPQPAKHSRVDRYEHPKVLEDNDSTISSLESLKRENEELREQLKVEHEENISMQKQLSELKGELNTL", "values": [{"measurement": "stoichiometry N", "setting": "[1]", "result": 2}]}
{"binder": "INT1+2 (Alp14-dimer with interfaces 1 and 2 inactivated) (domain or fragment) MSQDQEEDYSKLPLESRIVHKVWKVRLSAYEECSKSFSDAAAGSDNCFELWNNQSELWKSVLTDSNVAAQEAGTAAFVAYCRFSDPSHLLKAREISVLSISEKCLTSPRAGTRENALEALMLLVEADSAAPVIESIIPSLSARSPKVIASNVAAIASLVEQFGAKVIPSKMIIPHISNLFGHADKNVRKEASRLTVNIYRWTGDPAKDALFKDLRPVQTKELESLFAELPTEPPKQTRFLKSQQPTSEPNVETQVEEQPALENEESEPEPSDDQRAAAEEVDVLPNVDPNLETLMASSKWKDRKEALDKLLPVLSQPKILDNDFFNLVAILTKSVSKDANIMVVINAAHCIQAMAKGLASNFSKYASTSINALLERSKEKKANVIESLSSAMDAVLATSSLDDLAELIASFAGNKNPQIKSSCFSLFSRSFSNMTSDPAKFTVDTCAKACVPGVSDTFEPVRSAAAEALGVLMKLVGAAAINQYLSPLDDIRKSKIRSFYETATVKAKAPTKKSKVKPSKQEESKVVVPSNAKAVKKSVVPSSPVVPSPRKATNKSLSMDVSKGNAFENGPLLPRPTTRPVSRGLSRGTSSSLQQKVKASTPLNSGALNETVQNLKNMELDDPAPQPAKHSRVDRYEHPKVLEDNDSTISSLESLKRENEELREQLKVEHEENISMQKQLSELKGELNTL", "values": [{"measurement": "TOG1-TOG2:αβ-tubulin molar ratio", "setting": "[2]", "result": 1.86}, {"measurement": "stoichiometry N", "setting": "[3]", "result": "~4"}, {"measurement": "TOG1-TOG2:αβ-tubulin molar ratio", "setting": "[4]", "result": 1.46}]}
